# T1: CD96 epitope peptide #18 (265-284) (human)
# T1 peptide: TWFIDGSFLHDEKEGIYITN
# T2: CD96 epitope peptide #22 (325-344) (human)
# T2 peptide: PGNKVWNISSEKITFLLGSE
# T3: CD96 epitope peptide #12 (181-200) (human)
# T3 peptide: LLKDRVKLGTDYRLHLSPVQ
# T4: CD96 epitope peptide #4 (62-81) (human)
# T4 peptide: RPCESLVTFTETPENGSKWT
# T5: CD96 epitope peptide #2 (32-51) (human)
# T5 peptide: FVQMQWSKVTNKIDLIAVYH
# T6: CD96 epitope peptide #13 (196-215) (human)
# T6 peptide: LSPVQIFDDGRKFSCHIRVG
# T7: CD96 epitope peptide #11 (166-185) (human)
# T7 peptide: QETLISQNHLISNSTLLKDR
# T8: CD96 epitope peptide #20 (295-314) (human)
# T8 peptide: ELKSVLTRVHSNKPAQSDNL
# T9: CD96 epitope peptide #19 (280-299) (human)
# T9 peptide: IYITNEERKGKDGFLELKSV
# T10: CD96 epitope peptide #7 (107-126) (human)
# T10 peptide: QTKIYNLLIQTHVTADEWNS
# T11: CD96 epitope peptide #9 (137-156) (human)
# T11 peptide: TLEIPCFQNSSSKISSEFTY
# T12: Full-length human CD96 on CHO-S cells (human, UniProt P40200 22-585)
# T12 construct: also called CD96-CHOs; hCD96-CHOs
# T12 sequence: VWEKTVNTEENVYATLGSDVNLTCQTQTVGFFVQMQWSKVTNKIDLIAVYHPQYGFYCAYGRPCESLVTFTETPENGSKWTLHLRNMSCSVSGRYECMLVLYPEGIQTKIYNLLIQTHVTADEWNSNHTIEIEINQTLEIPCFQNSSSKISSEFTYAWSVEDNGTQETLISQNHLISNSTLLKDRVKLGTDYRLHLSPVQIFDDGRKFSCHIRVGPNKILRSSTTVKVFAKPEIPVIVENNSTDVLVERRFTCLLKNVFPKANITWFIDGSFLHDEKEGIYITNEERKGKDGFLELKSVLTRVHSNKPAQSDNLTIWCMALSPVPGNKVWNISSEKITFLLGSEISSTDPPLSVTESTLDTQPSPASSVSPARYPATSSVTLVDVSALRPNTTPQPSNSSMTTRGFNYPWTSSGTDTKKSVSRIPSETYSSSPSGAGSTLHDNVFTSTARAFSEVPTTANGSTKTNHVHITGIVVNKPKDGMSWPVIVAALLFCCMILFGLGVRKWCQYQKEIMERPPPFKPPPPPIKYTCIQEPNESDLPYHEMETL
# B1: ch1718 (antibody, human IgG4 S228P, kappa, V domains shown)
# VH: EFQLQQSGPELVKPGASVKISCKASAYSITDYNMNWVKQSNGKSLEWIGVINPSYGITDYNQNFKDKATLTVDQSSSTAYMQLNSLTSEDSAVYYCAIQLRLPGYFDVWGTGTTVIVSS
# VL: DIKMTQSPSSMYASLGERVTITCKASQDINNYLNWFQQKPGKSPKTLIYRANRLVDGVPSRFSGSGSGQDYSLTISSLEYEDMGIYYCLKYDEFPYTFGGGTKVEIKR
# notes: also called chimeric antibody corresponding to m1718
# B2: h1719-010 (antibody, V domains shown)
# VH: EVTLKESGPVLVKPTETLTLTCTVSGFSLSSYGVSWVRQPPGKGLEWLGVIWGDGNTNYHSVLISRLTISKDTSKSQVVLTLTNMDPVDTATYYCAKQNYYGSRYGYPIDYWGQGTTVTVSS
# VL: DIQMTQSPSSVSASVGDRVTITCKATQDVGTAVAWYQQKPGKAPKLLIYWASTRHTGVPSRFSGSGSGTDFTLTISSLQPEDFATYYCQQYGSSVLTFGGGTKVEIK
# notes: Only variable regions are tied to this name
# How the values were obtained:
# [1] = molecular target: T1, CD96 epitope peptide #18 (265-284); assay: peptide ELISA, peptide coated
# Method: (§1) The epitopes recognized by anti-CD96 antibody were detected by the assay of binding the antibody to different polypeptide fragments of CD96 protein. The fragments of different polypeptides of the CD96 antigen were coated on the microtiter plate. The signal density after the antibody was added was used to judge the binding activity of the antibody and the polypeptide. The specific experimental method is as follows:
# (§2) The polypeptides were diluted to a concentration of 20 μg/ml with PBS buffer (Shanghai Yuanpei Biotechnology Co., Ltd. Cat No. B320), pH 7.4, added to a 96-well microtiter plate (Corning, Cat No. CLS3590-100EA) at a volume of 50 μl/well, and coated at 4° C. overnight. After discarding the liquid, 250 μl/well of 5% skim milk (BD skim milk, Cat No. 232100) blocking solution diluted with PBS was added, and the plate was incubated in an incubator at 37° C. for 3 hours. After blocking, the blocking solution was discarded, and the plate was washed 5 times with PBST buffer (pH 7.4 PBS containing 0.05% tween-20). 50 μl/well of different concentrations of the antibodies to be tested (hybridoma purification antibody or humanized antibody) diluted with sample dilution was added, and the plate was incubated in an incubator at 37° C. for 2 hours. […] After washing the plate 5 times with PBST, 50 μl/well of TMB chromogenic substrate (KPL, Cat No. 52-00-03) was added, the plate was incubated at room temperature for 5-15 min, followed by adding 50 μl/well of 1M H₂SO₄ to stop the reaction. The absorption value was read at 450 nm with a microplate reader (Thermo Scientific MuLtiskan MK3), and the epitopes that CD96 antibody can recognize were analyzed.
# [2] = molecular target: T2, CD96 epitope peptide #22 (325-344); assay: peptide ELISA, peptide coated
# Method: as §1, §2
# [3] = molecular target: T3, CD96 epitope peptide #12 (181-200); assay: peptide ELISA, peptide coated
# Method: as §1, §2
# [4] = molecular target: T4, CD96 epitope peptide #4 (62-81); assay: peptide ELISA, peptide coated
# Method: as §1, §2
# [5] = molecular target: T5, CD96 epitope peptide #2 (32-51); assay: peptide ELISA, peptide coated
# Method: as §1, §2
# [6] = molecular target: T6, CD96 epitope peptide #13 (196-215); assay: peptide ELISA, peptide coated
# Method: as §1, §2
# [7] = molecular target: T7, CD96 epitope peptide #11 (166-185); assay: peptide ELISA, peptide coated
# Method: as §1, §2
# [8] = molecular target: T8, CD96 epitope peptide #20 (295-314); assay: peptide ELISA, peptide coated
# Method: as §1, §2
# [9] = molecular target: T9, CD96 epitope peptide #19 (280-299); assay: peptide ELISA, peptide coated
# Method: as §1, §2
# [10] = molecular target: T10, CD96 epitope peptide #7 (107-126); assay: peptide ELISA, peptide coated
# Method: as §1, §2
# [11] = molecular target: T11, CD96 epitope peptide #9 (137-156); assay: peptide ELISA, peptide coated
# Method: as §1, §2
# [12] = molecular target: T12, Full-length human CD96 on CHO-S cells; assay: cell ELISA on fixed CHO-S cells overexpressing human CD96, HRP anti-human secondary antibody, OD450
# Method: The binding capacity of the anti-CD96 antibody was tested by binding experiments of the antibody to human CD96 protein overexpressing CHO-S cells. The full-length CD96 plasmid was transfected into CHO-S cells by electrotransfection, and cells were then screened for two weeks under pressure for the detection of the expression of CD96. After the over-expressing cells were fixed at the bottom of the 96-well plate, the density of the signal after adding the antibody was used to judge the binding activity of the antibody to CD96 overexpressing CHO-S cells. The specific experimental method is as follows:
# The cells were seeded at a density of 9×10⁴/100 μL/well in a 96-well plate and cultured overnight. After aspirating the supernatant, the plate was washed once with PBS, subsequently, 100 μl/well immunostaining fixation solution (Biyuntian, P0098) was added and fixed for one hour at room temperature, and the plate was washed three times with PBS. Once the liquid was discarded, 250 μl/well of 5% skim milk (BD, 232100) blocking solution diluted with PBS was added, and the plate was blocked in an incubator at 37° C. for 2.5 hours. […] The absorption value was read at 450 nm with a NOVOStar microplate reader, and the EC50 value of the CD96 antibodies to CD96 overexpressing CHO-S cells was calculated (see FIG. 1 and Table 15).
Binder,binding result [1],binding result [2],binding result [3],binding result [4],binding result [5],binding result [6],binding result [7],binding result [8],binding result [9],binding result [10],binding result [11],EC50 (read off the curve) [12]
B1,binds,binds,binds,binds,binds,binds,binds,binds,binds,binds,binds,
B2,,,,,,,,,,,,~0.05 nM

# Source: US20200347130A1 (JIANGSU HENGRUI MEDICINE, published 2020)
